In the assay the target is T1, GST-Matrin-3 (human, UniProt P43243-1 1-847).
T1 construct: human Matrin-3, cDNA GenBank NM_199189, inserted downstream of the GST gene in pGEX-6P-1; also called GST-fused Matrin-3; pGEX-Matrin-3; source: E. coli BL21-CodonPlus(DE3)-RIPL, purified (Glutathione Sepharose 4B); not shown: GST, N-terminal, kept
T1 sequence (looked up): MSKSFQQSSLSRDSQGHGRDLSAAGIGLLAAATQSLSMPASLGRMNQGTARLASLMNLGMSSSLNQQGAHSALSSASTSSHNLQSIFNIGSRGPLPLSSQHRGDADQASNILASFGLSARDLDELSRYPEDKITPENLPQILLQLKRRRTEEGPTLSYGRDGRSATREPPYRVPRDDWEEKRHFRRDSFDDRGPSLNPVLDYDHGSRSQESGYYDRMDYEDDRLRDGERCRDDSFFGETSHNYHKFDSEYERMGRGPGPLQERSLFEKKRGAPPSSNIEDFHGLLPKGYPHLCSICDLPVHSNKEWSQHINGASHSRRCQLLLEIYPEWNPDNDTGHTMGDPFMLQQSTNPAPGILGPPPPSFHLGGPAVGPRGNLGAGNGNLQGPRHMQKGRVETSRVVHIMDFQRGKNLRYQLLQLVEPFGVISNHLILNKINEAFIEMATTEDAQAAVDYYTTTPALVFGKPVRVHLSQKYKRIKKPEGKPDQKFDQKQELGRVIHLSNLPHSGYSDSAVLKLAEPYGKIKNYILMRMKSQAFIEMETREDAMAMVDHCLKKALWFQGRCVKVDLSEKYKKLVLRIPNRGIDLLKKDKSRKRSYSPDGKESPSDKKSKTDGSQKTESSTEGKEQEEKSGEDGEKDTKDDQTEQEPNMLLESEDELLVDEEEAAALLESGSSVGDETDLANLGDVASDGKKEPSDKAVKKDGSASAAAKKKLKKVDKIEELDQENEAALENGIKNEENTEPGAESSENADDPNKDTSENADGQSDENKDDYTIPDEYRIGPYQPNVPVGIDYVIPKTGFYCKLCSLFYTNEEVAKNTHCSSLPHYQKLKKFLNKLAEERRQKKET
The experiment in a line: pull-down; purified GST-Matrin-3 (50 ng) incubated with purified MBP-fused proteins (50 ng) in Interaction Buffer (20 mM Tris pH 8.0, 137 mM NaCl, 1.5 mM MgCl2, 1 mM EGTA, 0.1% Triton X-100, 10% glycerol), 1.5 h at 4°C; captured on Glutathione Sepharose 4B; immunoblot with anti-MBP Ab. Conditions: both partners purified. (A western blot detects proteins with antibodies after separation by electrophoresis.)

B1: MBP-p68 (natural protein, human, UniProt P17844-1 1-614, looked up)
chain: MSGYSSDRDRGRDRGFGAPRFGGSRAGPLSGKKFGNPGEKLVKKKWNLDELPKFEKNFYQEHPDLARRTAQEVETYRRSKEITVRGHNCPKPVLNFYEANFPANVMDVIARQNFTEPTAIQAQGWPVALSGLDMVGVAQTGSGKTLSYLLPAIVHINHQPFLERGDGPICLVLAPTRELAQQVQQVAAEYCRACRLKSTCIYGGAPKGPQIRDLERGVEICIATPGRLIDFLECGKTNLRRTTYLVLDEADRMLDMGFEPQIRKIVDQIRPDRQTLMWSATWPKEVRQLAEDFLKDYIHINIGALELSANHNILQIVDVCHDVEKDEKLIRLMEEIMSEKENKTIVFVETKRRCDELTRKMRRDGWPAMGIHGDKSQQERDWVLNEFKHGKAPILIATDVASRGLDVEDVKFVINYDYPNSSEDYIHRIGRTARSTKTGTAYTFFTPNNIKQVSDLISVLREANQAINPKLLQLVEDRGSGRSRGRGGMKDDRRDRYSAGKRGGFNTFRDRENYDRGYSSLLKRDFGAKTQNGVYSAANYTNGSFGSNFVSAGIQTSFRTGNPTGTYQNGYDSTQQYGSNVPNMHNGMNQQAYAYPATAAAPMIGYPMPTGYSQ
notes: human p68 (DDX5), cDNA GenBank NM_004396, inserted downstream of the MBP gene in pMAL-x5c; also called p68/DDX5; source: E. coli BL21-CodonPlus(DE3)-RIPL, purified (Amylose resin); not shown: MBP, N-terminal, kept
Take B1: the binding result is on record as “binds”.

B2: MBP-CTCF (natural protein, human, UniProt P49711-1 1-727, looked up)
chain: MEGDAVEAIVEESETFIKGKERKTYQRRREGGQEEDACHLPQNQTDGGEVVQDVNSSVQMVMMEQLDPTLLQMKTEVMEGTVAPEAEAAVDDTQIITLQVVNMEEQPINIGELQLVQVPVPVTVPVATTSVEELQGAYENEVSKEGLAESEPMICHTLPLPEGFQVVKVGANGEVETLEQGELPPQEDPSWQKDPDYQPPAKKTKKTKKSKLRYTEEGKDVDVSVYDFEEEQQEGLLSEVNAEKVVGNMKPPKPTKIKKKGVKKTFQCELCSYTCPRRSNLDRHMKSHTDERPHKCHLCGRAFRTVTLLRNHLNTHTGTRPHKCPDCDMAFVTSGELVRHRRYKHTHEKPFKCSMCDYASVEVSKLKRHIRSHTGERPFQCSLCSYASRDTYKLKRHMRTHSGEKPYECYICHARFTQSGTMKMHILQKHTENVAKFHCPHCDTVIARKSDLGVHLRKQHSYIEQGKKCRYCDAVFHERYALIQHQKSHKNEKRFKCDQCDYACRQERHMIMHKRTHTGEKPYACSHCDKTFRQKQLLDMHFKRYHDPNFVPAAFVCSKCGKTFTRRNTMARHADNCAGPDGVEGENGGETKKSKRGRKRKMRSKKEDSSDSENAEPDLDDNEDEEEPAVEIEPEPEPQPVTPAPPPAKKRRGRPPGRTNQPKQNQPTAIIQVEDQNTGAIENIIVEVKKEPDAEPAEGEEEEAQPAATDAPNGDLTPEMILSMMDR
notes: source: E. coli BL21-CodonPlus(DE3)-RIPL, purified (Amylose resin); not shown: MBP, N-terminal, kept
For the molecule B2, the binding result is “binds”.

(Values after paper PMC3197142, “Direct Identification of Insulator Components by Insertional Chromatin Immunoprecipitation” (PLoS ONE, 2011).)
